Reference: patent EP1086377B1, “A METHOD OF IDENTIFYING LIGANDS TO RNA […] 70 SUBUNIT” (AstraZeneca AB, priority 1998, dated 1999)

Assays:
[1] = target: T1, Truncated sigma^70 (C-terminal 99 amino acids) (Escherichia coli, UniProt P00579); assay: Competitive ELISA for quantification of AsiA-sigma^70 interaction (GST-AsiA binding to immobilised truncated sigma^70); set-up: species or system E. coli
T1 construct: made in house; GST-AsiA from E. coli DH5alpha / pARC 8105
Description: A solution of the protein product (200 pmoles/ml) in a pH 7.5 buffer comprising Tris HCl (10 mM) and sodium chloride (50 mM) was prepared and 200 µl of solution were added per well of a nickel-coated microtitre plate, followed by incubation at room temperature for a period of two hours. The microtitre plate was then washed 5 times with the buffer solution and then incubated at 37°C for one hour with a solution of bovine serum albumin (3% w/v) in the above buffer. After washing 5 times with phosphate buffered saline (PBS) with "Tween" 20 (polyoxyethylene (20) sorbitan monolaurate, 0.5% v/v), the GST-AsiA fusion protein prepared as described in Example 4.1. above (100 ng) was added together with a defined amount of a putative inhibitor of truncated sigma^70 protein (corallopyronin, myxopyronin or ripostatin) and incubated at 37°C for one hour. Further washing (5 times) with PBS-"Tween" 20 was carried out and then anti-GST antibodies (1:2000) raised in rabbits were added to the wells, with incubation at 37°C for one hour. The previous washing step was repeated and thereafter anti-rabbit IgG-horse radish peroxidase (HRP) conjugate (1:2000) was added and incubated at 37°C for one hour. A final wash with PBS-"Tween" 20 was carried out, before adding the HRP enzyme substrate, tetramethyl benzidene/ H2O2. The enzymic reaction (resulting in the development of colour) was stopped after a suitable period of time by the addition of 6N H2SO4 and the microtitre plate was "read" in a spectrophotometer using light of wavelength (λ) 450 nm.

[2] = target: E. coli RNA polymerase sigma^70 subunit (Escherichia coli) (UniProt P00579); assay: cell-based or functional assay
Sequence of E. coli RNA polymerase sigma^70 subunit (Escherichia coli) (P00579 whole entry): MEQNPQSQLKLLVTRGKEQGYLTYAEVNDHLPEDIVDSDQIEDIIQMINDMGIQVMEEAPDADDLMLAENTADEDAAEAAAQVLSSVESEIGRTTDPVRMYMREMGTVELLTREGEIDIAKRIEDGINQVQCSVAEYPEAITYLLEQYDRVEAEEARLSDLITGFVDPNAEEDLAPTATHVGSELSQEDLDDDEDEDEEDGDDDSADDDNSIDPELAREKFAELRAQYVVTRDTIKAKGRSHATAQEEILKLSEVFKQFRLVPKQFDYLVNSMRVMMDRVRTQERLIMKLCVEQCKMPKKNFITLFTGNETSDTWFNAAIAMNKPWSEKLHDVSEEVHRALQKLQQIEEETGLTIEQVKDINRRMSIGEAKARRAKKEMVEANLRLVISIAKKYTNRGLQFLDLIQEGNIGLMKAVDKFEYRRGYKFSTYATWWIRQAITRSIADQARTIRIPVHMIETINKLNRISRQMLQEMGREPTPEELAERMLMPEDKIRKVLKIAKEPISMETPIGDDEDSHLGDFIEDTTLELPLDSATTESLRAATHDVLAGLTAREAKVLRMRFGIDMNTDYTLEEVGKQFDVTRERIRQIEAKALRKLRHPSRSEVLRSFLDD

[3] = target: Salmonella typhimurium RNA polymerase sigma^70 subunit (Salmonella typhimurium) (UniProt P0A2E3); assay: cell-based or functional assay
Sequence of Salmonella typhimurium RNA polymerase sigma^70 subunit (Salmonella typhimurium) (P0A2E3 whole entry, the tested form may be a part): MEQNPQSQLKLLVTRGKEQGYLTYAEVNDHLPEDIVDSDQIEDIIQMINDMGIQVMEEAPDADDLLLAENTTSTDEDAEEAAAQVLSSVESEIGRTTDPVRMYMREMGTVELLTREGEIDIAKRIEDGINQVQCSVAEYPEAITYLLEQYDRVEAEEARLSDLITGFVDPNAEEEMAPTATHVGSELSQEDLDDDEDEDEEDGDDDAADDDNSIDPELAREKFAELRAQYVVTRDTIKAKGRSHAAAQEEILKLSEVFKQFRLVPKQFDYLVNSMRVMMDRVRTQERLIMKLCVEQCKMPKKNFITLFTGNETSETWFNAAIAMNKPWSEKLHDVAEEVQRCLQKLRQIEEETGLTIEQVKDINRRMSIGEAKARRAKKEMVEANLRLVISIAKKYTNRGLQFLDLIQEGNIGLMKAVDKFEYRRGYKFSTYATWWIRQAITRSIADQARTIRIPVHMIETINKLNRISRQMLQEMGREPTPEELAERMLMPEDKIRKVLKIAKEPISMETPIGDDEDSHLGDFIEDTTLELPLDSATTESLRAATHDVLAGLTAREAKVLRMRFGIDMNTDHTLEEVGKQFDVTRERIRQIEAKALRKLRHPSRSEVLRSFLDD

[4] = target: Truncated sigma^70 (C-terminal 99 amino acids of E. coli sigma^70), (His)5-tagged (Escherichia coli) (UniProt P00579); assay: competitive ELISA; His-tagged truncated sigma^70 on nickel plate, free AsiA 7 µg/ml competing with GST-AsiA 500 ng/ml; the value is the GST-AsiA binding that remains
Sequence of Truncated sigma^70 (C-terminal 99 amino acids of E. coli sigma^70), (His)5-tagged (Escherichia coli) (P00579 515-613): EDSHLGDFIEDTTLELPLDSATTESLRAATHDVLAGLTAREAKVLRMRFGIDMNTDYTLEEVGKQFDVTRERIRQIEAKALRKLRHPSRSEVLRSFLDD

[5] = target: Truncated sigma^70 (C-terminal 99 amino acids of E. coli sigma^70), (His)5-tagged (Escherichia coli) (UniProt P00579); assay: ELISA; His-tagged truncated sigma^70 on nickel plate, GST-AsiA detected with rabbit anti-GST and anti-rabbit IgG-HRP, OD 450 nm; reference without competitor
[6] = GST-AsiA 500 ng/ml + competitor at 30 µg/ml

T1 sequence (P00579 515-613): as above
Sequence of GST-AsiA fusion protein (glutathione-S-transferase fused to the N-terminus of the bacteriophage T4 a (P08515 whole entry, the tested form may be a part): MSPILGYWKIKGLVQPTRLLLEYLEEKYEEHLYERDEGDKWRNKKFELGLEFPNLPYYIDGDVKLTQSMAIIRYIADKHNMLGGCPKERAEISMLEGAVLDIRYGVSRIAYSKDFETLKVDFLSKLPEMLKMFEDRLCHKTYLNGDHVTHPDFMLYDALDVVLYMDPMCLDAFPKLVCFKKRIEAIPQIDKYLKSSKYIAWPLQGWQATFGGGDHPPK

Compound: C/C=C/C/C=C(\C)C(O)CC/C(C)=C/C=C(\C)C(=O)c1c(O)cc([C@H](C)CC/C=C/NC(=O)OC)oc1=O (some centres unmarked) [corallopyronin]
- % Binding to truncated sigma^70 [1, 6]: 69%

Compound: C/C(=C\Cc1ccccc1)CCC(=O)C[C@H]1C[C@H](O)C/C(C)=C/C/C=C/C/C(CC(=O)O)=C\C(=O)O1 [ripostatin]
- % Binding to truncated sigma^70 ([1]; GST-AsiA 500 ng/ml + competitor at 1 µg/ml): 100%
- % Binding to truncated sigma^70 ([1]; GST-AsiA 500 ng/ml + competitor at 10 µg/ml): 55%
- % Binding to truncated sigma^70 ([1]; GST-AsiA 500 ng/ml + competitor at 100 µg/ml): 1.5%

Compound: AsiA protein (anti-sigma^70 factor of bacteriophage T4, asiA gene product), released from GST-AsiA by Factor Xa
- [^3H]UTP (nmol) incorporated: E. coli RNA polymerase + 0.1 µg AsiA (control without AsiA 2.1), E. coli sigma^70 series [2]: 0.57 nmol
- [^3H]UTP (nmol) incorporated: E. coli RNA polymerase + 0.1 µg AsiA (control without AsiA 2.3), S. typhimurium sigma^70 series before sigma^70 is added [2]: 0.34 nmol
- [^3H]UTP (nmol) incorporated: E. coli RNA polymerase + 0.1 µg AsiA + 4 µg E. coli sigma^70 (reactivation) [2]: 2.3 nmol
- [^3H]UTP (nmol) incorporated: E. coli RNA polymerase + 0.1 µg AsiA + 4 µg E. coli sigma^70 preincubated with 0.1 µg AsiA [2]: 0.68 nmol
- inhibition of E. coli RNA polymerase activity by 0.07 µg AsiA, T4 DNA template [2]: > 80%
- [^3H]UTP (nmol) incorporated: E. coli RNA polymerase + 0.1 µg AsiA + 4 µg S. typhimurium sigma^70 (reactivation) [3]: 3 nmol
- [^3H]UTP (nmol) incorporated: E. coli RNA polymerase + 0.1 µg AsiA + 4 µg S. typhimurium sigma^70 preincubated with 0.1 µg AsiA [3]: 0.98 nmol
- % Binding to truncated sigma^70 [4]: 12%

Compound: GST-AsiA fusion protein (glutathione-S-transferase fused to the N-terminus of the bacteriophage T4 a (from UniProt P08515 1-218)
- % Binding to truncated sigma^70 [5]: 100%

Compound: myxopyronin
- % Binding to truncated sigma^70 [1, 6]: 56%
